According to paper PMC5386860, “Variants of the Sir4 Coiled-Coil Domain Improve Binding to Sir3 for Heterochromatin Formation in Saccharomyces cerevisiae” (G3: Genes|Genomes|Genetics, 2017):
Where a chain is given by its changes, count along the chain named. In names and notes the source's numbering stands.

B1: Sir4 (1217–1358) (domain or fragment, S. cerevisiae, UniProt P11978 1217-1358, looked up)
chain: SNTTEILTSVDVLGTHSQTGTQQSNMYTSTQKTELEIDNKDSVTECSKDMKEDGLSFVDIVLSKAASALDEKEKQLAVANEIIRSLSDEVMRNEIRITSLQGDLTFTKKCLENARSQISEKDAKINKLMEKDFQVNKEIKPY
notes: source: E. coli BL21 Rosetta, purified (Ni-NTA, Superdex 75)
B2: Sir4-ETK (1217–1358) (domain or fragment, S. cerevisiae, UniProt P11978 1217-1358, looked up)
chain: B1 chain with E94V, T98S, K109R
notes: also called Sir4-E1310V, T1314S, K1325R coiled-coil fragment; source: E. coli BL21 Rosetta, purified (Ni-NTA, Superdex 75)

Key:
[1] = target: T1, Sir3 (464–978) (S. cerevisiae, UniProt P06701 464-978); assay: SEC; proteins mixed in equimolar ratio, 40 min on ice; Superdex 200 Increase 3.2/300, isocratic flow, 4°; fractions on SDS-PAGE, Coomassie; settings: both partners purified
T1 construct: Purification according to Chang et al. (2003) and King et al. (2006); also called wild-type Sir3 fragment; source: E. coli BL21 Rosetta, purified (Ni-IDA, ion exchange, Superdex 200)

[2] = target: T2, Sir3-1067(464–978) (S. cerevisiae, UniProt P06701 464-978, K657A | K658A); assay: as above; settings: both partners purified
T2 construct: also called mutant Sir3 fragment; source: E. coli BL21 Rosetta, purified (Ni-IDA, ion exchange, Superdex 200)
T2 sequence (P06701 464-978 K657A/K658A): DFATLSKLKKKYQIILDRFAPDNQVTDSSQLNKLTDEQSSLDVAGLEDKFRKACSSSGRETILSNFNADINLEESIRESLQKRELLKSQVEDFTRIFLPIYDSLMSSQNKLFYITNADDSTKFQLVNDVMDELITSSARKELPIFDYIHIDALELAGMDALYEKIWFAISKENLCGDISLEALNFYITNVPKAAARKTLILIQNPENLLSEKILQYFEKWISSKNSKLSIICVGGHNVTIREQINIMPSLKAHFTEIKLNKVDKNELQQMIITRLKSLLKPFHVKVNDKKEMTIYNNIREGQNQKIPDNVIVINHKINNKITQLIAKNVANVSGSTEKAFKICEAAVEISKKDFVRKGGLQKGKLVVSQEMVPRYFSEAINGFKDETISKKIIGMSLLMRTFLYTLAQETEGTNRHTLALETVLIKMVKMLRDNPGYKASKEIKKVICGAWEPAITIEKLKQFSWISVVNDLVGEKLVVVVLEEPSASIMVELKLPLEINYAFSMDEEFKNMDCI

T1 sequence (P06701 464-978): as the sequence (P06701 464-978 K657A/K658A) above, with A194K, A195K counted along it

Binder	binding result [1]	binding result [2]
B1	binds	
B2		binds
